For assay [1], the target named is human FcγRIIβ on CHOK1 cells (human) (UniProt P31994). As to the kind of experiment: ratio of flow cytometry EC50s, reference FcγRIIα (R131) on CHOK1 cells.
Another assay addresses Hu FcgRIIA_R167 (human) (UniProt P12318). Kind of assay: kinetics, antibody captured on protein A/G chip, FcγR injected as analyte.
In another assay the target is Hu FcγRIIβ (human) (UniProt P31994). The description is as above.

Sequence of UniProt P12318 (P12318 36-218 H167R limits assumed): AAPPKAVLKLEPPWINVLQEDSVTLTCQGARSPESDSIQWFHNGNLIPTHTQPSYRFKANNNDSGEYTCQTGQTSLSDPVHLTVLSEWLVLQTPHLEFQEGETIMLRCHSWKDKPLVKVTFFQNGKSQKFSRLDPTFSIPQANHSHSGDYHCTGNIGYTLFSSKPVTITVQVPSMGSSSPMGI

By Kd is commonly meant the free concentration of one partner at which half of the binding sites on the other are occupied at equilibrium, for simple one-to-one binding. Low readings indicate higher affinity, high ones lower affinity. As for IgG1 P238D (antibody), the IIa/IIb (ratio of EC50) in assay [1] amounted to 77.8. Further, in the assay with Hu FcgRIIA_R167 (human), the Fold (KD(IgG WT)/KD(variants)) is less than 0.3 fold and the dissociation constant (Kd) is greater than 5 µM. Moreover, the Fold (KD(IgG WT)/KD(variants)) with Hu FcγRIIβ (human) worked out at 3.18 fold.

Values taken from patent publication US20260176331A1.
